In patent US20050239710:

Molecular target: T1, 19-mer (SEQ ID NO:11) cleavage domain peptide
T1 chain: PRCGNPDVANYNFFPRKPK

B1: Proenzyme pro-MMP-9 (protein)
chain: APRQRQSTLVLFPGDLRTNLTDRQLAEEYLYRYGYTRVAEMRGESKSLGPALLLLQKQLSLPETGELDSATLKAMRTPRCGVPDLGRFQTFEGDLKWHHHNITYWIQNYSEDLPRAVIDDAFARAFALWSAVTPLTFTRVYSRDADIVIQFGVAEHGDGYPFDGKDGLLAHAFPPGPGIQGDAHFDDDELWSLGKGVVVPTRFGNADGAACHFPFIFEGRSYSACTTDGRSDGLPWCSTTANYDTDDRFGFCPSERLYTQDGNADGKPCQFPFIFQGQSYSACTTDGRSDGYRWCATTANYDRDKLFGFCPTRADSTVMGGNSAGELCVFPFTFLGKEYSTCTSEGRGDGRLWCATTSNFDSDKKWGFCPDQGYSLFLVAAHEFGHALGLDHSSVPEALMYPMYRFTEGPPLHKDDVNGIRHLYGPRPEPEPRPPTTTTPQPTAPPTVCPTGPPTVHPSERPTAGPTGPPSAGPTGPPTAGPSTATTVPLSPVDDACNVNIFDAIAEIGNQLYLFKDGKYWRFSEGRGSRPQGPFLIADKWPALPRKLDSVFEERLSKKLFFFSGRQVWVYTGASVLGPRRLDKLGLGADVAQVTGALRSGRGKMLLFSGRRLWRFDVKAQMVDPRSASEVDRMFPGVPLDTHDVFQYREKAYFCQDRFYWRVSSRSELNQVDQVGYVTYDILQCPED
conversion of pro-MMP-9 into prodomain and active enzyme by stromilysin (HPLC splicing assay): Splicing can be inhibited in a dose dependent manner with micromolar 19-mer (SEQ ID NO:11) peptide.
